B1: PEPD^G278D: recombinant and enzymatically inactive mutant of human peptidase D (PEPD), with replacement of glycine 278 by aspartic acid (protein)
chain: AAATGPSFWLGNETLKVPLALFALNRQRLCERLRKNPAVQAGSIVVLQGGEETQRYCTDTGVLFLQESFFHWAFGVTEPGCYGVIDVDTGKSTLFVPRLPASHATWMGKIHSKEHFKEKYAVDDVQYVDEIASVLTSQKPSVLLTLRGVNTDSGSVCREASFDGISKFEVNNTILHPEIVESRVFKTDMELEVLRYTNKISSEAHREVMKAVKVGMKEYGLESLFEHYCYSRGGMRHSSYTCICGSGENSAVLHYGHAGAPNDRTIQNGDMCLFDMDGEYYSVASDITCSFPRNGKFTADQKAVYEAVLLSSRAVMGAMKPGDWWPDIDRLADRIHLEELAHMGILSGSVDAMVQAHLGAVFMPHGLGHFLGIDVHDVGGYPEGVERIDEPGLRSLRTARHLQPGMVLTVEPGIYFIDHLLDEALADPARASFLNREVLQRFRGFGGVRIEEDVVVIDSGIELLTCVPRTVEEIEACMAGCDKAFTPFSGPK
modifications: left off: small tags and cut ends

Legend:
[1] = test system: HCT116 tumors; experiment: Subcutaneous HCT116 tumors in SCID mice; format: in vivo, mouse; details: sc HCT116 tumors
Experimental: SCID mice (C.B.17 SCID) were bred by the Laboratory Animal Shared Resource at Roswell Park Comprehensive Cancer Center. Male mice at 7-8 weeks of age were used. All mouse experiments were approved by the Institutional Animal Care and Use Committee at Roswell Park Comprehensive Cancer Center under protocol 1022M. We established subcutaneous tumors by inoculating 1×10^6 HCT116 cells, 4×10^6 HT29 cells, or 2×10^6 SW48 cells to the flank of each mouse in 100 μl of serum free medium. Colon patient-derived xenograft (PDX) 14650 was established from a liver metastatic lesion in a patient treated at Roswell Park Comprehensive Cancer Center. Tumor fragments (˜20 mm^3) from donor mice were implanted into the flank of each mouse subcutaneously using a trocar. Orthotopic colon tumors in mice were established by inoculating HCT116 cells stably transfected with firefly luciferase (2×10^6 cells in 50 μl of 50% serum-free medium and 50% Matrigel) to the caecum wall of each mouse. Mice in each tumor model were randomized cage-wise into treatment groups using Research Randomizer (www.randomizer.org). Subcutaneous tumor volume was measured using length ×width^2÷2. Tumor volume was measured three times each week. Orthotopic tumor growth was monitored by bioluminescence weekly. Mice were given D-luciferin (150 mg/kg) by ip and anesthetized with isoflurane, and tumor burden was measured by bioluminescence using the IVIS Spectrum In Vivo Imaging System (PerkinElmer). Drug treatment was started when significant tumor growth was detected. EP (0.5 mg/kg) was administered to mice ip once daily. […] Aderbasib (60 mg/kg) was administered to mice by gavage once daily. 5-FU (35 mg/kg) was administered to mice ip twice weekly (Monday and Thursday). EP, PEPD^G278D and 5-FU were administered to mice in PBS. Aderbasib was first dissolved in DMSO and then diluted by PBS (final 5% DMSO by volume). Each agent was administered to mice at 0.1 ml volume per 20 g body weight. When a mouse was given multiple agents on the same day, the agents were dosed at approximately 30 min intervals. The mice were closely monitored for sign of adverse effects and weighed three times each week. Mice were sacrificed 24-48 hours after the last treatment, at which point the tumors were promptly removed, snap frozen and stored at −80° C. for later analysis. Some tumors were fixed in 10% buffered formalin, paraffin embedded, cut at 4 μm, and stained with hematoxylin and eosin (H & E) for histological analysis.

[2] = Monitoring of mice for signs of adverse effects; format: in vivo; details: mice bearing HCT116 or HT29 tumors; aderbasib alone or the combination regimen
Experimental: SCID mice (C.B.17 SCID) were bred by the Laboratory Animal Shared Resource at Roswell Park Comprehensive Cancer Center. Male mice at 7-8 weeks of age were used. All mouse experiments were approved by the Institutional Animal Care and Use Committee at Roswell Park Comprehensive Cancer Center under protocol 1022M. We established subcutaneous tumors by inoculating 1×10^6 HCT116 cells, 4×10^6 HT29 cells, or 2×10^6 SW48 cells to the flank of each mouse in 100 μl of serum free medium. Colon patient-derived xenograft (PDX) 14650 was established from a liver metastatic lesion in a patient treated at Roswell Park Comprehensive Cancer Center. Tumor fragments (˜20 mm^3) from donor mice were implanted into the flank of each mouse subcutaneously using a trocar. […] Subcutaneous tumor volume was measured using length ×width^2÷2. Tumor volume was measured three times each week. Orthotopic tumor growth was monitored by bioluminescence weekly. Mice were given D-luciferin (150 mg/kg) by ip and anesthetized with isoflurane, and tumor burden was measured by bioluminescence using the IVIS Spectrum In Vivo Imaging System (PerkinElmer). Drug treatment was started when significant tumor growth was detected. […] The mice were closely monitored for sign of adverse effects and weighed three times each week. […]

[3] = Measurement of plasma PEPD^G278D concentration by ELISA; format: in vivo, mouse; details: mice bearing SW48 tumors and HCT116 tumors; 24 h after final PEPD^G278D treatment (4 mg/kg ip with EP)
Experimental: Plasma PEPD^G278D concentration was measured by ELISA as previously reported. Briefly, 96-well ELISA plates were coated with 100 μl/well of a PEPD antibody (mouse monoclonal, against amino acids 101-305, sc-390042) overnight at 4° C. The plates were then washed three times with PBST and incubated with 200 μl/well of a blocking buffer for at least 2 h at RT. The plates were washed again with PBST and incubated with 100 μl/well of a PEPD standard or a sample, which were appropriately diluted, for 2 h at RT. After another round of wash with PBST, each well was incubated with 100 μl of a detection antibody (an anti-PEPD rabbit polyclonal, ab-86507) for 2 h at RT. After another round of wash with PBST, 100 μl of a secondary antibody-HRP conjugate was added to each well, followed by 1 h incubation at RT. The plates were washed again with PBST three times, and each well was then incubated with 100 μl of a HRP substrate solution. After adequate color development, 100 μl of stop solution was added to each well, and absorbance at 450 nm was recorded by a Synergy 2 Multi-Mode Microplate Reader. Purified recombinant PEPD^G278D was used as a standard.

Row | Molecule | tumor growth ([1]; aderbasib alone 60 mg/kg by gavage daily) | signs of toxicity [2] | tumor growth ([1]; EP plus PEPD^G278D 4 mg/kg ip three times weekly, or cetuximab 15 mg/kg ip twice weekly) | tumor growth ([1]; EP plus PEPD^G278D 8 mg/kg ip thrice weekly) | plasma concentrations of PEPD^G278D [3]
1 | COC(=O)N1CC2(CC2)C[C@H](C(=O)NO)[C@H]1C(=O)N1CC=C(c2ccccc2)CC1 [aderbasib] | ineffective | did not show signs of toxicity | – | – | –
2 | B1 | – | – | neither agent inhibited the growth | did not inhibit tumor growth | high and similar
